Results as given in patent publication US20190202914A1 (HARBOUR BIOMED SHANGHAI, published 2019).
Residue numbers refer to the chain shown, from its start. Blank lines part the entries; values can stand above or below the binder they belong to.

Columns and labels:
[1] = molecular target: T1, cyno CTLA-4 expressed on 293 cells (293-cynoCTLA-4 cells) (cyno, UniProt G7PL88 36-223); assay: flow cytometry (MFI) on 293 cells expressing cynomolgus CTLA-4, Alexa 488 anti-human (H+L) detection
T1 construct: also called cynomolgus CTLA-4
T1 sequence: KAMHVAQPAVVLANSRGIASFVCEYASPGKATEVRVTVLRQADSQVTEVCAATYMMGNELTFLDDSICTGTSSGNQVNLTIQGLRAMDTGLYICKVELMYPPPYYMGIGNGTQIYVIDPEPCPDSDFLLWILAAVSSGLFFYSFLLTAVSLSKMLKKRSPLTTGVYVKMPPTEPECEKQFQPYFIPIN
Experimental: (§1) The culture medium was aspirated, and the cells were washed twice with HBSS (Hanks Balanced Salt Solution, Invitrogen). The cells were treated with enzyme-free cell dissociation solution (Versene solution, Invitrogen) and collected. The cells were then washed twice with HBSS, cell counts were determined, and cells were resuspended with HBSS at 2×10⁶ cells/mL. BSA was added to the cell suspension to a final concentration of 1%, and the cells were blocked for 30 minutes on ice and then washed twice with HBSS. The cells were collected after centrifugation and resuspended in FACS buffer (HBSS+1% BSA, v/v) at 2×10⁶ cells/mL. 100 μL of the cell suspension were then added to each well of a 96-well plate. 100 μL of purified anti-CTLA-4 antibodies from Example 2 or control antibodies were added to each well of the 96-well plate and incubated for 1 hour on ice, wherein the heavy chain and light chain of the Ipilimumab analogue had amino acid sequences of SEQ ID NO.: 199 and SEQ ID NO.: 200, respectively. Cells were washed twice with FACS buffer, and 100 μL of Alexa 488-labeled anti-human (H+L) antibody (Invitrogen) were added to the 96-well plate and incubated for 1 hour on ice. The samples were washed three times with FACS buffer, and 100 μL of fixation buffer (containing 4% paraformaldehyde, v/v) were added to each well and incubated for 10 minutes. The cells were then washed twice with FACS buffer and resuspended in 100 μL of FACS buffer.

[2] = molecular target: T2, human CTLA-4 expressed on cells (293-hCTLA-4 cells; CTLA-4-expressing CHO-K1 cells) (human, UniProt P16410 36-223); assay: flow cytometry (MFI) on 293 cells expressing human CTLA-4, Alexa 488 anti-human (H+L) detection
T2 construct: also called CD152; cell-expressed CTLA-4
T2 sequence: T1 sequence with N14S, M106L
Experimental: as §1

[3] = molecular target: T3, Recombinant mouse CTLA4-his protein (CT4-M52H5, Acro Bio) (mouse, UniProt P09793 36-161); assay: ELISA on coated recombinant mouse CTLA4-his, HRP anti-human IgG (H+L), OD450
T3 construct: Bought protein; also called murine CTLA-4; not shown: his tag
Experimental: Recombinant human or mouse CTLA4-his protein (CT4-H5229 for human protein, CT4-M52H5 for mouse protein, Acro Bio) was diluted in PBS to a concentration of 2 μg/mL, and 100 μL of the diluted CTLA-4-his protein was added per well to ELISA microplates, which were incubated overnight at 4° C. to coat the plates with the recombinant proteins. The plates were then blocked with ELISA blocking solution (containing 2% BSA, 0.05% (v/v) Tween-20, pH7.4 PBS buffer, w/v) at 37° C. for two hours and then incubated with anti-CTLA-4 antibodies with various concentrations for 1 hour at 37° C. The plates were washed and incubated with horseradish peroxidase (HRP) conjugated goat anti-human IgG (H+L) antibody (A18805, Life technologies) at 37° C. for one hour. 100 μL of tetramethylbenzidine (TMB) were added, and the plates were incubated at room temperature for 15 minutes. 50 μL of 1N HCl were added to terminate the reaction, and the OD450 nm was determined by an ELISA plate reader.

[4] = molecular target: T4, Recombinant human CTLA-4-his protein (CT4-H5229, Acro Bio) (human, UniProt P16410 36-161); assay: ELISA of 293 supernatants on coated human CTLA4-his
T4 construct: extracellular domain; Bought protein; also called Human CTLA-4^ECD-his; not shown: his tag
T4 sequence (looked up): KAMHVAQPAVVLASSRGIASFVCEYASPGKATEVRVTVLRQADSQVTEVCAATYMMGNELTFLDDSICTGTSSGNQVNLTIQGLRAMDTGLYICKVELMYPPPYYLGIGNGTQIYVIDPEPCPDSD

[5] = molecular target: T2, human CTLA-4 expressed on cells …; assay: cell-based blocking assay, flow cytometry: % blocking of biotinylated B7.1 ECD-Fc binding to 293-hCTLA-4 cells
Experimental: Cell-Based Receptor-Ligand Binding assay was performed to determine the ability of the anti-CTLA-4 antibodies to block the binding of CTLA-4 to its ligands B7.1. Recombinant B7.1^ECD-Fc protein (B71-H5259, Acro Bio) was biotinylated using EZ-LINK NHS-PEG12-Biotin (Thermo Scientific#21312) according to the manufacturer's instruction. Biotinylated B7.1^ECD-Fc protein was concentrated and free label removed by using Amicon centrifugal filter (10 kDa cut off). The extracellular domain of B7.1 corresponded to amino acids Val35-Asn242 of Uniprot database protein P33681.
The culture medium was aspirated, and the cells were washed twice with PBS. The cells were treated with enzyme-free cell dissociation solution (Versene solution, Invitrogen) and collected. Dissociation solution was neutralized by the addition of 8 mL of culture medium, and cell counts were determined. Cells were centrifuged at 300 g for 5 minutes and resuspended in blocking buffer (containing 2% BSA, pH 7.4 PBS buffer, w/v) at 1×10⁶ cells/mL. The cells were blocked for 15 minutes at 37° C. Meanwhile, the wells of 96-well round-bottom plates were blocked with 200 μL of blocking buffer for 1 hour at 37° C. The blocking buffer was discarded, and 200 μL of cells were dispensed to each well of the 96-well plates (2×10⁵ cells/well). The plates were centrifuged at 500 g for 5 minutes, and the supernatants were discarded. The cells were resuspended in 100 μL of anti-CTLA-4 antibodies prepared in blocking buffer with varying concentrations. 100 μL of biotinylated B7.1 ECD-Fc (60 μg/mL in blocking buffer) were added to each well of 96-well plate and mixed by shaking gently. The plates were incubated at 4° C. for 90 minutes and washed twice with 200 μL blocking buffer. The blocking buffer was discarded, and the cells were resuspended in 100 μL of streptavidin-Alexa 488 solution (Invitrogen, 1:500 in blocking buffer) and incubated at 4° C. for 1 hour. The plates were washed three times with blocking buffer and added with 200 μL of blocking buffer.
The mean fluorescence intensity (MFI) was determined using FACS Calibur (BD).

[6] = molecular target: T2, human CTLA-4 expressed on cells …; assay: flow cytometry on 293F-hCTLA-4 cells

B1: CL24 (antibody, human IgG1, V domains shown)
VH: EVQLVETGGGLIQPGGSLRLSCAASGLNVSRHYLSWVRQAPGKGLEWVAVIYSGGGIEYVDSVKGRFTISRDNANNTLYLQMRSLRTEDSAVYYCARAIPRPHGSDIWGQGTMVTVSS
notes: Human heavy-chain-only antibody (HCAb): two heavy chains, no light chain
EC50 (read off the curve) [1]: ~1 nM | EC50 (read off the curve) [2]: ~2 nM | binding result [3]: no binding (tested: 533.3 nM)

B2: CL20 (antibody, human IgG1, V domains shown)
VH: EVQLVESGGGLVQPGGSLRLSCAASGFTFSNYWMHWVRQAPGKGLVWVSRINSDGSNTTYADSVKGRFTISRDNAKNTLYLQMNSLRAEDTAVYYCARWFGEHYYGMDVWGQGTTVTVSS
notes: as for B1
binding result [4]: binds

B3: CL11 (antibody, human IgG1, V domains shown)
VH: EVQLEETGGDLIQPGGSLRLSCTASGFNVSRIYMSWVRQAPGKGLEWVSVIYSGGSIYYADSVRGRFTISRDSSTNTVFLQMNSLRAEDSAVYYCARAVPSAPSSFDIWGQGTMVTVSS
notes: Human heavy-chain-only antibody (HCAb): two heavy chains, no light chain; also called clone 11
EC50 (read off the curve) [1]: ~1 nM | IC50 (read off the curve) [5]: 10 to 20 nM | EC50 (read off the curve) [2]: ~2 nM | binding result [3]: no binding (tested: 325.5 nM)

Next, values leading:

binding result [6]: binds
B4: CL11-dPTM (antibody, human IgG1, V domains shown)
VH: B3 VH with N28T
notes: HCAb variant with PTM removal

binding result [6]: binds
B5: CL30-dPTM (antibody, human IgG1, V domains shown)
VH: B3 VH with N28T, F79Y, S101H, S105N, I108K, M114R
notes: HCAb variant with PTM removal
